Measurements from patent US20250327097A1, “ORGANISMS PRODUCING LESS CROTONIC ACID” (Global Bioenergies, priority 2021, published 2025).
Substitutions are numbered along the chain they refer to. Numbers in names are those of the source.

B1: I283T-P284D-i284aP-N287P-S322T-N388M-E421V-C430N-L432F-L434W-S436N-H461T-dG462-A463T-Y469A (protein)
chain: MFLKSLREQINLLKRQGDLRIINRPVDSYLEAAAIIRRSTETKAPVPLMTNIKGYPGCSIVGGLAALSSNPEYPLSRVAMSLGLSTTASAQSIVQYLIDGLKKTPYLPVEIDSNSAPCKQNILRGEDASLAHFPIPQVHQHDGNRYVNTWGVFIVESPDGQWCNWSIQRVQYLNDRQMIALVFPSQHISDIWEEWVKIGKPMPYALVQGCEPIVPYIAGLPLLERNVNEAEYIGALYGKGIEVVKCETHDLRVPASSEVVIEGYFAITREGVEGPFGEFAGYTDNEPSLQPILSITAISWQDDPIWPVVAEGKPVDEYHTCTGIGDAAAIQNVLLTANLPVSFVWVPLYSACHLMIVSINRHWRQTHPDLTSEQLTKKVGDVIHQTRMSIKLPKIVVLDDDVDPADTESLLWALATRIHPVRKRYFYESNIFPWLNCYSEEERHNRKGKRVIIDALLPENTGTISSFDAAYPDDIKQRVLMHWETDFSHD
B2: A33P-I283T-P284D-i284aP-N287P-S322T-N388M-E421V-C430N-L432F-L434W-S436N-C437F-H461T-G462R-i462aA-A463T (protein)
chain: B1 chain with A33P, C437F, G462R, A469Y
B3: V272L-I283T-P284D-i284aP-N287P-S322T-N388M-E421V-C430N-L432F-L434W-S436N-H461T-dG462-A463T (protein)
chain: B1 chain with V272L, A469Y
B4: I283T-P284D-i284aP-N287P-S322T-H384S-N388M-E421V-C430N-L432F-L434W-S436N-C437F-H461T-G462R-i462aA-A463T (protein)
chain: B1 chain with H384S, C437F, G462R, A469Y
B5: V272R-I283T-P284D-i284aP-N287P-S322T-N388M-E421V-C430N-L432F-L434W-S436N-C437F-G448E-H461T-G462R-i462aA-A463T (protein)
chain: B1 chain with V272R, C437F, G448E, G462R, A469Y
B6: I283T-P284D-i284aP-N287P-S322T-N388M-E421V-C430N-L432F-L434W-S436N-C437G-H461T-dG462-A463T (protein)
chain: B1 chain with C437G, A469Y
B7: V272I-I283T-P284D-i284aP-N287P-S322T-N388M-E421V-C430N-L432F-L434W-S436N-C437F-H461T-G462R-i462aA-A463T (protein)
chain: B1 chain with V272I, C437F, G462R, A469Y
B8: I283T-P284D-i284aP-N287P-S322T-N388M-I418V-E421V-C430N-L432F-L434W-S436N-C437F-H461T-G462R-i462aA-A463T (protein)
chain: B1 chain with I418V, C437F, G462R, A469Y
B9: V272R-I283T-P284D-i284aP-N287P-S322T-N388M-E421V-C430N-L432F-L434W-S436N-C437F-H461T-dG462-A463T (protein)
chain: B1 chain with V272R, C437F, A469Y
B10: V272R-I283T-P284D-i284aP-N287P-S322T-N388M-E421V-C430N-L432F-L434W-S436N-C437F-H461T-G462R-i462aA-A463T (protein)
chain: B1 chain with V272R, C437F, G462R, A469Y
B11: V272R-I283T-P284D-i284aP-N287P-S322T-N388M-E421V-C430N-L432F-L434W-S436N-G448E-H461T-G462R-i462aA-A463T (protein)
chain: B1 chain with V272R, G448E, G462R, A469Y
B12: K43E-I283T-P284D-i284aP-N287P-S322T-N388M-E421V-C430P-L432F-L434W-S436N-C437F-H461T-G462R-i462aA-A463T (protein)
chain: B1 chain with K43E, N430P, C437F, G462R, A469Y
B13: I283T-P284D-i284aP-N287P-S322T-N388M-E421V-C430N-I431M-L432F-L434W-S436N-H461T-dG462-A463T (protein)
chain: B1 chain with I431M, A469Y
B14: I283T-P284D-i284aP-N287P-S322T-N388M-E421V-C430R-L432F-L434W-S436N-C437F-H461T-G462R-i462aA-A463T (protein)
chain: B1 chain with N430R, C437F, G462R, A469Y
B15: V272K-I283T-P284D-i284aP-N287P-S322T-N388M-E421V-C430N-L432F-L434W-S436N-C437F-H461T-G462R-i462aA-A463T (protein)
chain: B1 chain with V272K, C437F, G462R, A469Y
B16: V272R-I283T-P284D-i284aP-N287P-S322T-N388M-E421V-C430N-L432F-L434W-S436N-C437F-G448E-H461T-dG462-A463T (protein)
chain: B1 chain with V272R, C437F, G448E, A469Y
B17: I283T-P284D-i284aP-N287P-S322T-N388M-E421V-C430N-L432F-L434W-S436N-C437F-G448E-H461T-dG462-A463T (protein)
chain: B1 chain with C437F, G448E, A469Y
B18: I283T-P284D-i284aP-N287P-S322T-N388M-E421V-C430N-L432F-L434W-S436N-C437F-H461T-dG462-A463T (protein)
chain: B1 chain with C437F, A469Y
B19: V272I-I283T-P284D-i284aP-N287P-S322T-N388M-E421V-C430N-L432F-L434W-S436N-H461T-dG462-A463T (protein)
chain: B1 chain with V272I, A469Y
B20: V272R-I283T-P284D-i284aP-N287P-S322T-N388M-E421V-C430N-L432F-L434W-S436N-H461T-dG462-A463T (protein)
chain: B1 chain with V272R, A469Y
B21: I283T-P284D-i284aP-N287P-S322T-N388M-E421V-C430N-L432F-L434W-S436N-G448E-H461T-G462R-i462aA-A463T (protein)
chain: B1 chain with G448E, G462R, A469Y
B22: I283T-P284D-i284aP-N287P-S322T-N388M-E421V-C430N-L432F-L434W-S436N-H461T-dG462-A463T-Y469H (protein)
chain: B1 chain with A469H
B23: R15L-I283T-P284D-i284aP-N287P-S322T-K378M-N388M-E421V-C430N-L432F-L434W-S436N-H461T-dG462-A463T (protein)
chain: B1 chain with R15L, K378M, A469Y
B24: I283T-P284D-i284aP-N287P-S322T-N388M-E421V-C430N-L432F-L434W-S436N-C437F-G448E-H461T-G462R-i462aA-A463T (protein)
chain: B1 chain with C437F, G448E, G462R, A469Y
B25: V272R-I283T-P284D-i284aP-N287P-S322T-N388M-E421V-C430N-L432F-L434W-S436N-H461T-G462R-i462aA-A463T (protein)
chain: B1 chain with V272R, G462R, A469Y
B26: V272R-I283T-P284D-i284aP-N287P-S322T-N388M-E421V-C430N-L432F-L434W-S436N-G448E-H461T-dG462-A463T (protein)
chain: B1 chain with V272R, G448E, A469Y
B27: I283T-P284D-i284aP-N287P-S322T-N388M-E421V-C430N-L432F-L434W-S436N-H461T-G462R-i462aA-A463T (protein)
chain: B1 chain with G462R, A469Y
B28: I283T-P284D-i284aP-N287P-S322T-N388M-E421V-C430N-L432F-L434W-S436N-C437F-H461T-G462R-i462aA-A463T (protein)
chain: B1 chain with C437F, G462R, A469Y

Test system: 3-methylcrotonic acid
Assay type: biochemical, Yersinia frederiksenii
Parameters: key: “+” representing a low increase in activity; “++++” representing a high increase in activity

Row | Molecule | Activity relative to WT
1 | B1 | ++++
2 | B2 | ++++
3 | B3 | ++++
4 | B4 | ++++
5 | B5 | ++++
6 | B6 | ++++
7 | B7 | ++++
8 | B8 | ++++
9 | B9 | ++++
10 | B10 | ++++
11 | B11 | ++++
12 | B12 | ++++
13 | B13 | ++++
14 | B14 | ++++
15 | B15 | ++++
16 | B16 | ++++
17 | B17 | ++++
18 | B18 | ++++
19 | B19 | ++++
20 | B20 | ++++
21 | B21 | ++++
22 | B22 | ++++
23 | B23 | ++++
24 | B24 | ++++
25 | B25 | ++++
26 | B26 | ++++
27 | B27 | ++++
28 | B28 | ++++
